Reference: PMC4513130, “Neuronal Calcium Sensor-1 Binds the D2 Dopamine Receptor and G-protein-coupled Receptor Kinase 1 (GRK1) Peptides Using Different Modes of Interactions” (The Journal of Biological Chemistry, 2015)

Key:
[1] = target: D2 receptor peptide (D2R peptide) (human); experiment: crystal structure; NCS-1 (1 mM) with 2-fold excess of D2R peptide; 150 mM Tris-HCl pH 8.0, 8% ethylene glycol, 20% PEG 5000, 20 °C; 2.19 Å
[2] = target: GRK1 peptide (N terminus of G-protein-coupled receptor kinase 1, residues 1-25); experiment: crystal structure; NCS-1 (1 mM) with 2-fold excess of GRK1 peptide; 0.12 M alcohols, 0.1 M HEPES/MOPS pH 7.5, 30% PEGMME 550 and PEG 20000, 20 °C; 2.30 Å
Sequence of GRK1 peptide (N terminus of G-protein-coupled receptor kinase 1, residues 1-25) (Q15835 1-25): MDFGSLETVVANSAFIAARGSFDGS

[3] = target: D2 receptor peptide (D2R peptide) (human); experiment: ITC; 1 mM Ca2+/NCS-1 in the syringe titrated into 100 uM D2R peptide in the cell, 25 °C, 50 mM Tris-HCl, 50 mM NaCl, 5 mM CaCl2, pH 7.5; fitted to a sequential model and to a two-site nonsequential model with stoichiometry fixed at 1:2 NCS-1:peptide

Sequence of Rattus norvegicus neuronal calcium sensor-1 (NCS-1), full-length, Ca2+-bound (P62168 whole entry): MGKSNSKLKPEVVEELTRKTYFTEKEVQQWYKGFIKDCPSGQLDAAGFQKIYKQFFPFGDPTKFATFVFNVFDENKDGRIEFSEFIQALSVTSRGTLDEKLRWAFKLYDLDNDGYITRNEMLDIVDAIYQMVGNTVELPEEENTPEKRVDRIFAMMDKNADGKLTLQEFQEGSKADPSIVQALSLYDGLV

stoichiometry N [1]: 2
stoichiometry N [2]: 1
Kd, sequential binding model, first value [3]: 43 µM
Kd, sequential binding model, second value [3]: 58 µM
dH [3]: -2.06 kcal/mol
Substance: Rattus norvegicus neuronal calcium sensor-1 (NCS-1), full-length, Ca2+-bound (from UniProt P62168 1-190) (natural protein)
